Experiment [1] addresses Endothelin-1 (Homo sapiens) (UniProt P05305). Conditions: cited from earlier work.
The next experiment concerns the target T1, Gαi3 protein, P08754.
T1 chain: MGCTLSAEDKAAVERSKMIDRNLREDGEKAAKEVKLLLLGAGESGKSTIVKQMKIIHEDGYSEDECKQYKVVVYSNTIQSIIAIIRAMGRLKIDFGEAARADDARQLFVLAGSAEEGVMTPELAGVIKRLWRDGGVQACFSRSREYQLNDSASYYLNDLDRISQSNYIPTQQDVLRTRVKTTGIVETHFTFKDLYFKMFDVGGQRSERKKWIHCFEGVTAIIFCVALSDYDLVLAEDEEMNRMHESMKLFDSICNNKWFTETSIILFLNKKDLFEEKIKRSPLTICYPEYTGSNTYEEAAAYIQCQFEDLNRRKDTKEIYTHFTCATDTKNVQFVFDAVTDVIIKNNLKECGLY
The experiment can be described thus: ELISA (immobilized Gαi3, bound P9-ETA detected with anti-P9 antibody). To be noted: chain shown with the change; 1 μM mutant; parent: est. 100; read off a plot. For orientation: An ELISA detects its analyte on a solid surface through an enzyme-linked reagent.

Experiment [2] deals with T2, C-terminally biotinylated endothelin-1.
T2 chain: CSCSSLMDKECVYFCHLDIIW
The experiment can be described thus: ELISA (immobilized purified P9-ETA proteins, bET-1 detected with SA-HRP). Conditions: chain shown with the change; 5 μM bET-1; proteins reconstituted with APG; parent: est. 100; read off a plot.

Drawing on publication PMC5548930, this text covers Kd and percent of parent for eleven molecules.

As a reminder, the Kd is the constant that tells how readily two partners part at equilibrium.

On to “Endothelin receptor type A (P9-ETA fusion) (from UniProt P25101)”, for which, in experiment [1], the Kd was 60 nM.

B1: wild type P9-ETA (human endothelin receptor type A with N-terminal P9 fusion), P25101 G261W (protein)
chain: DNPERYSTNLSNHVDDFTTFRGTELSFLVTTHQPTNLVLPSNGSMHNYCPQQTKITSAFKYINTVISCTIFIVGMVGNATLLRIIYQNKCMRNGPNALIASLALGDLIYVVIDLPINVFKLLAGRWPFDHNDFGVFLCKLFPFLQKSSVGITVLNLCALSVDRYRAVASWSRVQGIGIPLVTAIEIVSIWILSFILAIPEAIGFVMVPFEYRGEQHKTCMLNATSKFMEFYQDVKDWWLFWFYFCMPLVCTAIFYTLMTCEMLNRRNGSLRIALSEHLKQRREVAKTVFCLVVIFALCWFPLHLSRILKKTVYNEMDKNRCELLSFLLLMDYIGINLATMNSCINPIALYFVSKKFKNCFQSCLCCCCYQSKSLMTSVPMNGTSIQWKNHDQNNHNTDRSSHKDSMN
Take B1: the percent of parent in the experiment with Gαi3 protein, P08754 was 110 % of w.t; in experiment [2], 31 % of w.t.

B2: wild type P9-ETA (human endothelin receptor type A with N-terminal P9 fusion), P25101 M65K (protein)
chain: DNPERYSTNLSNHVDDFTTFRGTELSFLVTTHQPTNLVLPSNGSKHNYCPQQTKITSAFKYINTVISCTIFIVGMVGNATLLRIIYQNKCMRNGPNALIASLALGDLIYVVIDLPINVFKLLAGRWPFDHNDFGVFLCKLFPFLQKSSVGITVLNLCALSVDRYRAVASWSRVQGIGIPLVTAIEIVSIWILSFILAIPEAIGFVMVPFEYRGEQHKTCMLNATSKFMEFYQDVKDWWLFGFYFCMPLVCTAIFYTLMTCEMLNRRNGSLRIALSEHLKQRREVAKTVFCLVVIFALCWFPLHLSRILKKTVYNEMDKNRCELLSFLLLMDYIGINLATMNSCINPIALYFVSKKFKNCFQSCLCCCCYQSKSLMTSVPMNGTSIQWKNHDQNNHNTDRSSHKDSMN
As to B2, the percent of parent in the experiment with Gαi3 protein, P08754 was 120 % of w.t; in experiment [2], 3 % of w.t.

B3: wild type P9-ETA (human endothelin receptor type A with N-terminal P9 fusion), P25101 C69S (protein)
chain: DNPERYSTNLSNHVDDFTTFRGTELSFLVTTHQPTNLVLPSNGSMHNYSPQQTKITSAFKYINTVISCTIFIVGMVGNATLLRIIYQNKCMRNGPNALIASLALGDLIYVVIDLPINVFKLLAGRWPFDHNDFGVFLCKLFPFLQKSSVGITVLNLCALSVDRYRAVASWSRVQGIGIPLVTAIEIVSIWILSFILAIPEAIGFVMVPFEYRGEQHKTCMLNATSKFMEFYQDVKDWWLFGFYFCMPLVCTAIFYTLMTCEMLNRRNGSLRIALSEHLKQRREVAKTVFCLVVIFALCWFPLHLSRILKKTVYNEMDKNRCELLSFLLLMDYIGINLATMNSCINPIALYFVSKKFKNCFQSCLCCCCYQSKSLMTSVPMNGTSIQWKNHDQNNHNTDRSSHKDSMN
For B3, the percent of parent in the experiment with Gαi3 protein, P08754 is 97 % of w.t; in experiment [2], 59 % of w.t.

B4: wild type P9-ETA (human endothelin receptor type A with N-terminal P9 fusion), P25101 L59P (protein)
chain: DNPERYSTNLSNHVDDFTTFRGTELSFLVTTHQPTNLVPPSNGSMHNYCPQQTKITSAFKYINTVISCTIFIVGMVGNATLLRIIYQNKCMRNGPNALIASLALGDLIYVVIDLPINVFKLLAGRWPFDHNDFGVFLCKLFPFLQKSSVGITVLNLCALSVDRYRAVASWSRVQGIGIPLVTAIEIVSIWILSFILAIPEAIGFVMVPFEYRGEQHKTCMLNATSKFMEFYQDVKDWWLFGFYFCMPLVCTAIFYTLMTCEMLNRRNGSLRIALSEHLKQRREVAKTVFCLVVIFALCWFPLHLSRILKKTVYNEMDKNRCELLSFLLLMDYIGINLATMNSCINPIALYFVSKKFKNCFQSCLCCCCYQSKSLMTSVPMNGTSIQWKNHDQNNHNTDRSSHKDSMN
B4: the percent of parent is 93 % of w.t in the experiment with Gαi3 protein, P08754 and 66 % of w.t in experiment [2].

B5: wild type P9-ETA (human endothelin receptor type A with N-terminal P9 fusion), P25101 K140I (protein)
chain: DNPERYSTNLSNHVDDFTTFRGTELSFLVTTHQPTNLVLPSNGSMHNYCPQQTKITSAFKYINTVISCTIFIVGMVGNATLLRIIYQNKCMRNGPNALIASLALGDLIYVVIDLPINVFILLAGRWPFDHNDFGVFLCKLFPFLQKSSVGITVLNLCALSVDRYRAVASWSRVQGIGIPLVTAIEIVSIWILSFILAIPEAIGFVMVPFEYRGEQHKTCMLNATSKFMEFYQDVKDWWLFGFYFCMPLVCTAIFYTLMTCEMLNRRNGSLRIALSEHLKQRREVAKTVFCLVVIFALCWFPLHLSRILKKTVYNEMDKNRCELLSFLLLMDYIGINLATMNSCINPIALYFVSKKFKNCFQSCLCCCCYQSKSLMTSVPMNGTSIQWKNHDQNNHNTDRSSHKDSMN
B5: the percent of parent was 110 % of w.t with Gαi3 protein, P08754 and 18 % of w.t in experiment [2].

B6: wild type P9-ETA (human endothelin receptor type A with N-terminal P9 fusion), P25101 N29D (protein)
chain: DNPERYSTDLSNHVDDFTTFRGTELSFLVTTHQPTNLVLPSNGSMHNYCPQQTKITSAFKYINTVISCTIFIVGMVGNATLLRIIYQNKCMRNGPNALIASLALGDLIYVVIDLPINVFKLLAGRWPFDHNDFGVFLCKLFPFLQKSSVGITVLNLCALSVDRYRAVASWSRVQGIGIPLVTAIEIVSIWILSFILAIPEAIGFVMVPFEYRGEQHKTCMLNATSKFMEFYQDVKDWWLFGFYFCMPLVCTAIFYTLMTCEMLNRRNGSLRIALSEHLKQRREVAKTVFCLVVIFALCWFPLHLSRILKKTVYNEMDKNRCELLSFLLLMDYIGINLATMNSCINPIALYFVSKKFKNCFQSCLCCCCYQSKSLMTSVPMNGTSIQWKNHDQNNHNTDRSSHKDSMN
Take B6: the percent of parent is 130 % of w.t with Gαi3 protein, P08754 and 42 % of w.t in experiment [2].

B7: wild type P9-ETA (human endothelin receptor type A with N-terminal P9 fusion), P25101 D35N (protein)
chain: DNPERYSTNLSNHVNDFTTFRGTELSFLVTTHQPTNLVLPSNGSMHNYCPQQTKITSAFKYINTVISCTIFIVGMVGNATLLRIIYQNKCMRNGPNALIASLALGDLIYVVIDLPINVFKLLAGRWPFDHNDFGVFLCKLFPFLQKSSVGITVLNLCALSVDRYRAVASWSRVQGIGIPLVTAIEIVSIWILSFILAIPEAIGFVMVPFEYRGEQHKTCMLNATSKFMEFYQDVKDWWLFGFYFCMPLVCTAIFYTLMTCEMLNRRNGSLRIALSEHLKQRREVAKTVFCLVVIFALCWFPLHLSRILKKTVYNEMDKNRCELLSFLLLMDYIGINLATMNSCINPIALYFVSKKFKNCFQSCLCCCCYQSKSLMTSVPMNGTSIQWKNHDQNNHNTDRSSHKDSMN
As to B7, the percent of parent with Gαi3 protein, P08754 was 92 % of w.t; in experiment [2] it was 29 % of w.t.

B8: wild type P9-ETA (human endothelin receptor type A with N-terminal P9 fusion), P25101 S213L (protein)
chain: DNPERYSTNLSNHVDDFTTFRGTELSFLVTTHQPTNLVLPSNGSMHNYCPQQTKITSAFKYINTVISCTIFIVGMVGNATLLRIIYQNKCMRNGPNALIASLALGDLIYVVIDLPINVFKLLAGRWPFDHNDFGVFLCKLFPFLQKSSVGITVLNLCALSVDRYRAVASWSRVQGIGIPLVTAIEIVSIWILLFILAIPEAIGFVMVPFEYRGEQHKTCMLNATSKFMEFYQDVKDWWLFGFYFCMPLVCTAIFYTLMTCEMLNRRNGSLRIALSEHLKQRREVAKTVFCLVVIFALCWFPLHLSRILKKTVYNEMDKNRCELLSFLLLMDYIGINLATMNSCINPIALYFVSKKFKNCFQSCLCCCCYQSKSLMTSVPMNGTSIQWKNHDQNNHNTDRSSHKDSMN
Take B8: the percent of parent with Gαi3 protein, P08754 was 160 % of w.t; in experiment [2], 130 % of w.t.

B9: wild type P9-ETA (human endothelin receptor type A with N-terminal P9 fusion), P25101 F161L (protein)
chain: DNPERYSTNLSNHVDDFTTFRGTELSFLVTTHQPTNLVLPSNGSMHNYCPQQTKITSAFKYINTVISCTIFIVGMVGNATLLRIIYQNKCMRNGPNALIASLALGDLIYVVIDLPINVFKLLAGRWPFDHNDFGVFLCKLLPFLQKSSVGITVLNLCALSVDRYRAVASWSRVQGIGIPLVTAIEIVSIWILSFILAIPEAIGFVMVPFEYRGEQHKTCMLNATSKFMEFYQDVKDWWLFGFYFCMPLVCTAIFYTLMTCEMLNRRNGSLRIALSEHLKQRREVAKTVFCLVVIFALCWFPLHLSRILKKTVYNEMDKNRCELLSFLLLMDYIGINLATMNSCINPIALYFVSKKFKNCFQSCLCCCCYQSKSLMTSVPMNGTSIQWKNHDQNNHNTDRSSHKDSMN
Turning to B9, the percent of parent in the experiment with Gαi3 protein, P08754 was 120 % of w.t; in experiment [2], 50 % of w.t.

B10: wild type P9-ETA (human endothelin receptor type A with N-terminal P9 fusion), P25101 F346C (protein)
chain: DNPERYSTNLSNHVDDFTTFRGTELSFLVTTHQPTNLVLPSNGSMHNYCPQQTKITSAFKYINTVISCTIFIVGMVGNATLLRIIYQNKCMRNGPNALIASLALGDLIYVVIDLPINVFKLLAGRWPFDHNDFGVFLCKLFPFLQKSSVGITVLNLCALSVDRYRAVASWSRVQGIGIPLVTAIEIVSIWILSFILAIPEAIGFVMVPFEYRGEQHKTCMLNATSKFMEFYQDVKDWWLFGFYFCMPLVCTAIFYTLMTCEMLNRRNGSLRIALSEHLKQRREVAKTVFCLVVIFALCWFPLHLSRILKKTVYNEMDKNRCELLSCLLLMDYIGINLATMNSCINPIALYFVSKKFKNCFQSCLCCCCYQSKSLMTSVPMNGTSIQWKNHDQNNHNTDRSSHKDSMN
In the case of B10, the percent of parent with Gαi3 protein, P08754 is 140 % of w.t; in experiment [2], 26 % of w.t.
